For orientation: Kd means the equilibrium constant for the complex coming apart. As usually defined, the koff is a measure of how fast the partners let go of each other. High values mean fast dissociation, low ones slow dissociation. One may read the kon as the second-order rate constant of association. Lower therefore signals slower complex formation. The EC50 (read off the curve) is the concentration at which the effect is half-maximal.

Results on four molecules are retold here after patent US20250263481A1.

Assay [1] has as its target His-tagged human Claudin-18.2 (human). In words: SPR, Biacore 8K, antibody captured by anti-human IgG (Fc), His-tagged human Claudin-18.2 as analyte. In general terms: Surface plasmon resonance follows binding to a sensor surface in real time, without labels.
Assay [2] addresses recombinant huCLDN18.2-Fc (human). In words: KinExA 4000, equilibrium in solution, antibody constant, huCLDN18.2-Fc titrated.
In assay [3] the target is human CLDN18.2 expressed on cells (human). Briefly: cell-based or functional assay.
Assay [4] shares this target. Briefly: flow cytometry (geometric mean, Alexa Fluor 647 anti-human IgG Fc secondary) on CLDN18.2-expressing 293T cells. Background: Flow cytometry measures light scatter and fluorescence of single cells or particles in a stream.

Where a chain is given by its changes, count along the chain named.

B1: YL-G2-B (antibody, human IgG1, kappa)
heavy: EVQLQQSGPELEKPGASVKISCKASGYSFTGYKMNWVKQSNGKSLEWIGNIDPYYGGTTYNQKFKGKATLTVDKSSSTAYMQLKSLTSEDSAVYYCARYGKGNTMDYWGQGTSVTVSSASTKGPSVFPLAPSSKSTSGGTAALGCLVKDYFPEPVTVSWNSGALTSGVHTFPAVLQSSGLYSLSSVVTVPSSSLGTQTYICNVNHKPSNTKVDKRVEPKSCDKTHTCPPCPAPELVGGPSVFLLPPKPKDTLMISRTPEVTCVVVDVSHEDPEVKFNWYVDGVEVHNAKTKPPEEQYNSTLRVVSVLTVLHQDWLNGKEYKCKVSNKALPAPIEKTISKAKGQPREPQVYTLPPSREEMTKNQVSLTCLVKGFYPSDIAVEWESNGQPENNYKTTPLVLDSDGSFFLYSKLTVDKSRWQQGNVFSCSVMHEALHNHYTQKSLSLSPGK
light: DIVMTQSPSSLTVTAGEKVTMSCKSSQSLLNSGNQKNYLTWYQQRPGQPPKLLIYWASTRESGVPVRFTGSGSGTDFTLTISSVQAEDLAVYYCQNAYIYPLTFGTGTKLELKRTVAAPSVFIFPPSDEQLKSGTASVVCLLNNFYPREAKVQWKVDNALQSGNSQESVTEQDSKDSTYSLSSTLTLSKADYEKHKVYACEVTHQGLSSPVTKSFNRGEC
In assay [1], B1 had a Kd of 2.05 nM, a koff of 0.0014 s⁻¹ and a kon of 686000 M⁻¹ s⁻¹. Also, in assay [2], the Kd is 1.7 nM.

B2: YL-G2-D (antibody, human IgG1, kappa)
heavy: QLQQSGPELEKPGASVKISCKASGYSFTGYKMNWVKQSNGESLEWIGNIDPYYGDTTYTQKFKGKATFTVDTSSSTAYMQLKSLTSEDSAVYFCARYNRGNTMDYWGQGTSVTVSSASTKGPSVFPLAPSSKSTSGGTAALGCLVKDYFPEPVTVSWNSGALTSGVHTFPAVLQSSGLYSLSSVVTVPSSSLGTQTYICNVNHKPSNTKVDKRVEPKSCDKTHTCPPCPAPELVGGPSVFLLPPKPKDTLMISRTPEVTCVVVDVSHEDPEVKFNWYVDGVEVHNAKTKPPEEQYNSTLRVVSVLTVLHQDWLNGKEYKCKVSNKALPAPIEKTISKAKGQPREPQVYTLPPSREEMTKNQVSLTCLVKGFYPSDIAVEWESNGQPENNYKTTPLVLDSDGSFFLYSKLTVDKSRWQQGNVFSCSVMHEALHNHYTQKSLSLSPGK
light: B1 light with M21L, T75A, Y93F, I99F, K113R
Turning to B2, in assay [1], the Kd stood at 1.02 nM, the koff came out at 0.000722 s⁻¹ and the kon worked out at 707000 M⁻¹ s⁻¹. Moreover, the Kd in assay [2] came to 6.4 nM.

B3: YL-G2-C (antibody, human IgG1, kappa)
heavy: QIQLVQSGPELRKPGETVKISCKASGFPFTTDGMSWVKQAPGKGLKWMGWINTYSGVPTYADDFKGRVAFSLETSASTAYLQIKNLKNEDTATYFCARFRRGNALDNWGQGTSVTVSSASTKGPSVFPLAPSSKSTSGGTAALGCLVKDYFPEPVTVSWNSGALTSGVHTFPAVLQSSGLYSLSSVVTVPSSSLGTQTYICNVNHKPSNTKVDKRVEPKSCDKTHTCPPCPAPELVGGPSVFLLPPKPKDTLMISRTPEVTCVVVDVSHEDPEVKFNWYVDGVEVHNAKTKPPEEQYNSTLRVVSVLTVLHQDWLNGKEYKCKVSNKALPAPIEKTISKAKGQPREPQVYTLPPSREEMTKNQVSLTCLVKGFYPSDIAVEWESNGQPENNYKTTPLVLDSDGSFFLYSKLTVDKSRWQQGNVFSCSVMHEALHNHYTQKSLSLSPGK
light: B1 light with R45K, V66D, V91I, A97N, I99F, T106A, K109R
In assay [1], B3 yielded a Kd of 1.11 nM, a koff of 0.000591 s⁻¹ and an on-rate (kon) of 532000 M⁻¹ s⁻¹. Also, the Kd in assay [2] is 3.8 nM.

B4: reference mAb (IMAB362, Ganymed) (antibody, INN chains, looked up, V domains shown)
VH: QVQLQQPGAELVRPGASVKLSCKASGYTFTSYWINWVKQRPGQGLEWIGNIYPSDSYTNYNQKFKDKATLTVDKSSSTAYMQLSSPTSEDSAVYYCTRSWRGNSFDYWGQGTTLTVSS
VL: DIVMTQSPSSLTVTAGEKVTMSCKSSQSLLNSGNQKNYLTWYQQKPGQPPKLLIYWASTRESGVPDRFTGSGSGTDFTLTISSVQAEDLAVYYCQNDYSYPFTFGSGTKLEIKR
In assay [3], B4 showed an ADCC on KATOIII CLDN18.2 cells, LDH: EC50 (run A) of 0.12 nM; an ADCC on KATOIII CLDN18.2 cells, LDH: EC50 (run B) of 0.22 nM; an ADCC on KATOIII CLDN18.2 cells, LDH: EC50 (run C) of 0.27 nM; an ADCC on KATOIII CLDN18.2 cells, LDH: max (% cytotoxity) (run A) of 27.9%. In assay [3], this molecule came in with an ADCC on KATOIII CLDN18.2 cells, LDH: max (% cytotoxity) (run B) of 24.5%; an ADCC on KATOIII CLDN18.2 cells, LDH: max (% cytotoxity) (run C) of 24.5%; an ADCC on NCI-N87 CLDN18.2 cells, LDH: EC50 (run A) of 0.057 nM; an ADCC on NCI-N87 CLDN18.2 cells, LDH: EC50 (run B) of 0.082 nM. In assay [3], the ADCC on NCI-N87 CLDN18.2 cells, LDH: EC50 (run C) came out at 0.1 nM; the ADCC on NCI-N87 CLDN18.2 cells, LDH: max (% cytotoxity) (run A) was 26.1%; the ADCC on NCI-N87 CLDN18.2 cells, LDH: max (% cytotoxity) (run B) turned out to be 22.1%; the ADCC on NCI-N87 CLDN18.2 cells, LDH: max (% cytotoxity) (run C) is 21.1%. Also, in assay [3], the CDC on CT26 CLDN18.2 cells, LDH: EC50 (run A) was 11.5 nM; the CDC on CT26 CLDN18.2 cells, LDH: EC50 (run B) was found to be 10.7 nM; the CDC on CT26 CLDN18.2 cells, LDH: EC50 (run C) was 11.9 nM; the CDC on CT26 CLDN18.2 cells, LDH: max (% cytotoxity) (run A) is 72.5%. Moreover, in assay [3], the CDC on CT26 CLDN18.2 cells, LDH: max (% cytotoxity) (run B) worked out at 54.7%; the CDC on CT26 CLDN18.2 cells, LDH: max (% cytotoxity) (run C) worked out at 51.6%; the CDC on KATOIII CLDN18.2 cells, LDH: EC50 (run A) was found to be 38.1 nM; the CDC on KATOIII CLDN18.2 cells, LDH: EC50 (run B) was 22.7 nM. In assay [3], this molecule had a CDC on KATOIII CLDN18.2 cells, LDH: EC50 (run C) of 27.5 nM; a CDC on KATOIII CLDN18.2 cells, LDH: max (% cytotoxity) (run A) of 29.7%; a CDC on KATOIII CLDN18.2 cells, LDH: max (% cytotoxity) (run B) of 46%; a CDC on KATOIII CLDN18.2 cells, LDH: max (% cytotoxity) (run C) of 34.9%. In assay [4], the EC50 (read off the curve) was 0.8 µg/mL.
